# Source: paper PMC3427372, “Proteomic Analysis Reveals New Cardiac-Specific Dystrophin-Associated Proteins” (PLoS ONE, 2012)
# B1: α1-dystrobrevin (natural protein, UniProt Q9D2N4 1-746, looked up)
# chain: MIEDSGKRGNTMAERRQLFAEMRAQDLDRIRLSTYRTACKLRFVQKKCNLHLVDIWNVIEALRENALNNLDPNIELNVARLEAVLSTIFYQLNKRMPTTHQIHVEQSISLLLNFLLAAFDPEGHGKISVFAVKMALATLCGGKIMDKLRYIFSMISDSSGVMVYGRYDQFLREVLKLPTAVFEGPSFGYTEQSARSCFSQQKKVTLNGFLDTLMSDPPPQCLVWLPLLHRLANVENVFHPVECSYCHSESMMGFRYRCQQCHNYQLCQDCFWRGHAGGSHSNQHQMKEYTSWKSPAKKLTNALSKSLSCASSREPLHPMFPDQPEKPLNLAHIVPPRPVTSMNDTLFSHSVPSSGSPFITRSSPPKDSEVEQNKMLARAAPAFLKGRGIQYSLNVADRLADEHVLIGLYVNMLRNDPPCMLESSNRLDEEHRLIARYAARLAAESSSSQPTQQRSAPDISFTIDANKQQRQLIAELENKNREILQEIQRLRVEHEQASQPTPEKAQQNPTLLAELRLLRQRKDELEQRMSALQESRRELMVQLEGLMKLLKEEELKQGTQGASSPRSSPSHTISRPIPMPIRSASACPTPTHTPQDSLTGVGGDVQEAFAQSSRRNLRSDLLVAADSITNTMSSLVKELNSEVASETESTVDSEFSRPQFEDLAPSPTSEKAFLAQIHSRKPGYIHGGAASTTHGDMVPEDGDPYTQPEDGNYENESVRQLENELQLEEYLKQKLQDEAYQVSLQG
# notes: α-dystrobrevin splice variant α1, mouse; told apart on blots by molecular weight with a pan α-dystrobrevin antibody; also called DTNA1; source: endogenous, mouse cardiac ventricle and skeletal muscle (quadriceps) lysate
# B2: β1-Syntrophin (natural protein, UniProt Q99L88 1-537, looked up)
# chain: MAVAAAAVAAPAGGGGARAQRSGLLEVLVRDRWHKVLVNLSEDALVLSCEEGAAAYNGIGAATNGSFCRGSGTGHPVPGVAQAPDSPAGVRTAFTDLPEQVPESISNQKRGVKVLKQELGGLGISIKGGKENKMPILISKIFKGLAADQTQALYVGDAILSVNGADLRDATHDEAVQALKRAGKEVLLEVKYMREATPYVKKGSPVSEIGWETPPPESPRLGGGSAEPLSSQSFSFHRDRKSIPLKMCYVTRNMTLADPENRQLEIHSPDAKHTVILRSKDSATAQAWFSAIHSNAGDLLTRVVADIREQLGKTGIAGSREIRHLGWLAEKVPGESEKQWKPALVVLTEKDLLIYDSMPRRKEAWFSPVHSYPLLATRLVHSGPGKGSPQAGMDLSFATRTGTKQGIETHLFRAEISRDLSHWTRSIVQGCHNSAELTAEITTACTYRNQECRLTIHYDNGFSISTEPQDGAFPKTIIQSPYEKLKMSSDDGIRMLYLDFGGKEGEIQLDLHSCPKPIVFIIHSFLSAKITRLGLVA
# notes: β1-syntrophin, mouse; source: endogenous, mouse cardiac ventricle and skeletal muscle (quadriceps) lysate
# Molecular target: T1, Dystrophin (mouse (endogenous in cardiac and …, UniProt P11531 1-3678))
# T1 construct: dystrophin, mouse, the large (427 kDa) full-length form of muscle cells; also called full-length dystrophin; full length dystrophin; source: endogenous, mouse cardiac ventricle and skeletal muscle (quadriceps) lysate
# T1 sequence (P11531 whole entry): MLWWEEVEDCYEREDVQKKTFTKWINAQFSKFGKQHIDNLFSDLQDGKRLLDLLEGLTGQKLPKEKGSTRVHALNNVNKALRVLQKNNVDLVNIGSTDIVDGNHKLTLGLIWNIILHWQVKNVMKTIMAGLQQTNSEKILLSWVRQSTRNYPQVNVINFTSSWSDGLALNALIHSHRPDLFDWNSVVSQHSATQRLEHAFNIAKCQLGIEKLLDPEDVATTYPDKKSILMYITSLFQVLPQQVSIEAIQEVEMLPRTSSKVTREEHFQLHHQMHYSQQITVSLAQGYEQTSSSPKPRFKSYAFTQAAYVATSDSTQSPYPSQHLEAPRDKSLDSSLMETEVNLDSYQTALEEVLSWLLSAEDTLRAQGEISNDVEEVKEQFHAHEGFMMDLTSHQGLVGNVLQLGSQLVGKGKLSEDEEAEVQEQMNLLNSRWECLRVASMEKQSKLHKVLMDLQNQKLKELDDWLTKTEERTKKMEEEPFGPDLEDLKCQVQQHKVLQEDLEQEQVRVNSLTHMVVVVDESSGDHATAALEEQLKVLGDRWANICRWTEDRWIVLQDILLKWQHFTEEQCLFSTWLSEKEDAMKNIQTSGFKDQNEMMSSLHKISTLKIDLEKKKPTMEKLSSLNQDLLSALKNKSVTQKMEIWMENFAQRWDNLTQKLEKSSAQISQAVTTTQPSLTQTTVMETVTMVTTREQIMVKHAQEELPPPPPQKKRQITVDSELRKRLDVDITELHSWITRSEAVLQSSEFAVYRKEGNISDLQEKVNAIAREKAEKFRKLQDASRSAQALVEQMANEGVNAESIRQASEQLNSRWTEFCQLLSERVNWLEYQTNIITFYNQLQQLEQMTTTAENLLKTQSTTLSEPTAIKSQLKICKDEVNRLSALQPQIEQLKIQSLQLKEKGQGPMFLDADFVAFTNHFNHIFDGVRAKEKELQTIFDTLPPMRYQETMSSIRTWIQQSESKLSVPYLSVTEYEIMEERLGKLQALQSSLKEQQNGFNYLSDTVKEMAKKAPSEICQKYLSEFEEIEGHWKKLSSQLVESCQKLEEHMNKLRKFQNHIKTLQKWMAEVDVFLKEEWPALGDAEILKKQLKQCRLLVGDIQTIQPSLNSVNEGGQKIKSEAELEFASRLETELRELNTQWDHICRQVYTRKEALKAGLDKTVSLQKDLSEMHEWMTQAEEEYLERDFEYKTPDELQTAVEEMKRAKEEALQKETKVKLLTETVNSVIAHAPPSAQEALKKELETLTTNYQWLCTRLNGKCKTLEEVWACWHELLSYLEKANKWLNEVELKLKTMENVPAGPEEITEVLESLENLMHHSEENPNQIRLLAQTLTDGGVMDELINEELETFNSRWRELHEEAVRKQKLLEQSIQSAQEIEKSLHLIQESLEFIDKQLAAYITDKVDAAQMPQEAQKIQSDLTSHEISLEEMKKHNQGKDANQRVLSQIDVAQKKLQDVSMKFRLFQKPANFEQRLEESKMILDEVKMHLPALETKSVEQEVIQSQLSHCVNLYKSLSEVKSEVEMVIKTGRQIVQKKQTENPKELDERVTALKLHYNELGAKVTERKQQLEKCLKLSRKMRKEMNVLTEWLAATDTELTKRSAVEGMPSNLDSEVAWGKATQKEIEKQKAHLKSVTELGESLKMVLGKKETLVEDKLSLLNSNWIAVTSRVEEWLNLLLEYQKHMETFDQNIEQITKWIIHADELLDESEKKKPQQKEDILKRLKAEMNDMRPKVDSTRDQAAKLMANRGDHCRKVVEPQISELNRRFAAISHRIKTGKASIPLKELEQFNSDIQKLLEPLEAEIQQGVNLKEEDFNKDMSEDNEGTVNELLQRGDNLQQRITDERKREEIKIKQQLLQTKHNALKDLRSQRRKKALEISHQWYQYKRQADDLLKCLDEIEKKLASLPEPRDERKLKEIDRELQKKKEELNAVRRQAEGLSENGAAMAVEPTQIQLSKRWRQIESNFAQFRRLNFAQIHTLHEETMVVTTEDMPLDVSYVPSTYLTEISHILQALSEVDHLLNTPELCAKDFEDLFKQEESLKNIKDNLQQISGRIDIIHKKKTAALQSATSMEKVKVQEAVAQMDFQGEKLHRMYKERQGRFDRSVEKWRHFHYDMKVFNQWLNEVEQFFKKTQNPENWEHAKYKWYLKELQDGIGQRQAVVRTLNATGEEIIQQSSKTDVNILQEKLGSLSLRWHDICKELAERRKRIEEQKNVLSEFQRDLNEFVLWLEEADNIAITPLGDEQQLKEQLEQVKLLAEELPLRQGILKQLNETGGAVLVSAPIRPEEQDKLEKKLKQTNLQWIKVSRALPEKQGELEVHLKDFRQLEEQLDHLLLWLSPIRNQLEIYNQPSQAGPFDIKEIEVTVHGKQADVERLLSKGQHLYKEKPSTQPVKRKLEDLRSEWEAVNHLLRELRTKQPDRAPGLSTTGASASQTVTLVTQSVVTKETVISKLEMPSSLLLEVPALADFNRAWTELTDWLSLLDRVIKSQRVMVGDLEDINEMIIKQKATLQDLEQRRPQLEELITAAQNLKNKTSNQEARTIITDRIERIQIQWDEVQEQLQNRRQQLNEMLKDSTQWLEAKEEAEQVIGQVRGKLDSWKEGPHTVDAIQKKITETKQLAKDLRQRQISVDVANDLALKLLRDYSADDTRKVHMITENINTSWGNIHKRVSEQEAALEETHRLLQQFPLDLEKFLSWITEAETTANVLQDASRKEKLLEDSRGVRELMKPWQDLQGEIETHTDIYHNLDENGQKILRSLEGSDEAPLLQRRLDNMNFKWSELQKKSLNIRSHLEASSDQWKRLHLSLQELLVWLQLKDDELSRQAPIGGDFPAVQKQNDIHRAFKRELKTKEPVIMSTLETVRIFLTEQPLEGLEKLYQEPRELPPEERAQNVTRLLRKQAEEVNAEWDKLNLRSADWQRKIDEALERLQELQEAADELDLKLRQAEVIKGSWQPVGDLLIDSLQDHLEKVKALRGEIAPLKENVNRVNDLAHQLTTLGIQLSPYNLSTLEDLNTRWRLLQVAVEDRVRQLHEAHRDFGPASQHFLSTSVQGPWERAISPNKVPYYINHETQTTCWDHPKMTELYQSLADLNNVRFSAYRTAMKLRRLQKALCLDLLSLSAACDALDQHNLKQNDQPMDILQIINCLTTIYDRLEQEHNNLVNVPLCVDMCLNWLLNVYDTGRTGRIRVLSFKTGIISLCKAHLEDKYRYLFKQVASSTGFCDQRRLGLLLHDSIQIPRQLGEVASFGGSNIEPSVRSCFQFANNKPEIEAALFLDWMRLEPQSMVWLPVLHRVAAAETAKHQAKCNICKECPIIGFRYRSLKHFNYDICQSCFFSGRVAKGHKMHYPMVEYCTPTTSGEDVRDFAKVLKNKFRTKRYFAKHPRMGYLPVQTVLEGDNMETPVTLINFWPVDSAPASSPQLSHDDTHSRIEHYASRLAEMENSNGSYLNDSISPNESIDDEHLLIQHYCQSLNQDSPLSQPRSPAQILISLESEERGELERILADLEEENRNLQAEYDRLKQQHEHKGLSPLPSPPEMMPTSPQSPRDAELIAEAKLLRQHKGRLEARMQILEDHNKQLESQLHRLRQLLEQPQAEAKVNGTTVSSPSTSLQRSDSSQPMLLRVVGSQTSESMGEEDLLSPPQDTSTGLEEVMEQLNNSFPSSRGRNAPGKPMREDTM
# Assay: co-IP; DYS-IP (MANDYS1 cross-linked to protein G magnetic beads) from wild type mouse cardiac muscle lysate, 3 hr at 4°C, Western blot; controls IgG-IP and mdx
# Details: partners not purified
row,fold less associated with dystrophin in cardiac than in skeletal muscle DYS-IPs [fold],Binder
1,~5,B1
2,4,B2
